Data published in PMC4166039.
Read-outs that look alike come from different tables or passages of the source.

How the values were obtained:
Experiment in all cases: cross-linking
[1] = biological target: human IgG1 (human) [IgG part: P01857]
[2] = biological target: human IgG1 (human) [IgG part: P01857]; remark: listed apart in the source
[3] = biological target: hamster IgG1 anti-CD3E antibody (145-2C11) (hamster)
[4] = biological target: human IgG4 isotype control antibody (human) [IgG part: P01861]
[5] = biological target: human IgG2 isotype control antibody (human) [IgG part: P01859]
[6] = biological target: mouse IgG2a (mouse)
[7] = biological target: rat IgG2c isotype control antibody (rat) (UniProt P20762)
UniProt P20762, sequence (P20762 whole entry, looked up): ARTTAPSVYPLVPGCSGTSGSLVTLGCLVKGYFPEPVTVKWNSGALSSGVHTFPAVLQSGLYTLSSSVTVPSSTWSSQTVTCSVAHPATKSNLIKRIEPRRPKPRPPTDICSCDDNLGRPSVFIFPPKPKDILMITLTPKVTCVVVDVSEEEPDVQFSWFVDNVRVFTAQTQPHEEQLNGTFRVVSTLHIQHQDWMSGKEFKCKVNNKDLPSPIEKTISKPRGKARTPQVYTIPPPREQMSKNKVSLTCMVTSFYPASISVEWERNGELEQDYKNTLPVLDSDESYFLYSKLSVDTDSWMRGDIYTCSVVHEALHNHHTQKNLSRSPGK

[8] = biological target: rat IgG2b anti-ICAM1 antibody (YN-1) (rat) (UniProt P20761)
UniProt P20761, sequence (P20761 whole entry, looked up): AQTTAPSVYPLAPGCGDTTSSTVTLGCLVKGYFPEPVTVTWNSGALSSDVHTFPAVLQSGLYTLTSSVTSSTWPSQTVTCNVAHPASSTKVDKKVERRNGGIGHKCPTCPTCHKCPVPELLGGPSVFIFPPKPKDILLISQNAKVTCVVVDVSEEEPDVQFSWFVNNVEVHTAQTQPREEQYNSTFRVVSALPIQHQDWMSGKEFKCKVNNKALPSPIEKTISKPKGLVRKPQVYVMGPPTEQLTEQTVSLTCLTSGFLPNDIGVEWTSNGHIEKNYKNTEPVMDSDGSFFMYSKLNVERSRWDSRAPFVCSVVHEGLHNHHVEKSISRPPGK

[9] = biological target: mouse IgG2b isotype control antibody (mouse) (UniProt P01867)
[10] = biological target: mouse IgG3 (mouse)
[11] = biological target: mouse IgG1 (mouse) [IgG part: P01868]
[12] = biological target: rat IgG1 isotype control antibody (rat)
[13] = biological target: mouse IgG1 (mouse) [IgG part: P01868]; remark: listed apart in the source

For “Protein Z K35BPA variant (designed binder)”, the percent of heavy chains cross-linked (1 h UV) [1] was 50%, the percent of heavy chains cross-linked (1 h UV) [2] was 47% and the percent of heavy chains cross-linked (2 h UV) [2] was > 55%. For the same substance, the percent of intact IgG cross-linked (1 h UV) [2] was 60%, the percent of intact IgG cross-linked (2 h UV) [2] was > 70% and the percent of heavy chains cross-linked (1 h UV) [3] was 30%. The percent of heavy chains cross-linked (1 h UV) [4] was 50% and the percent of heavy chains cross-linked (1 h UV) [5] was 17%.

For “Protein Z K35BPA variant with the background F5I mutation (designed binder)”, the percent of heavy chains cross-linked (1 h UV) [3] was 37%.

With “Protein Z L17BPA variant (designed binder)” the percent of heavy chains cross-linked (1 h UV) [6] was 60%, the percent of heavy chains cross-linked (1 h UV) [7] was 60% and the percent of heavy chains cross-linked (1 h UV) [8] was 20%. The percent of heavy chains cross-linked (1 h UV) [9] was 71%, the percent of heavy chains cross-linked (15 min UV) [10] was > 70% and the percent of heavy chains cross-linked (1 h UV) [10] was 80%. For the same substance, the percent of heavy chains cross-linked (2 h UV) [10] was 90%, the percent of intact IgG cross-linked (15 min UV) [10] was 90% and the percent of intact IgG cross-linked (1 h UV) [10] was > 95%. The percent of intact IgG cross-linked (2 h UV) [10] was > 96%.

In the case of “Protein Z Q32BPA variant (designed binder)”, the percent of heavy chains cross-linked (1 h UV) [11] is reported as 50%, the percent of heavy chains cross-linked (1 h UV) [12] is reported as 10% and the percent of heavy chains cross-linked (1 h UV) [2] is reported as 37%. The percent of heavy chains cross-linked (1 h UV) [3] was 20%, the percent of heavy chains cross-linked (1 h UV) [5] was 12% and the percent of heavy chains cross-linked (1 h UV) [13] was 50%. The percent of heavy chains cross-linked (2 h UV) [13] was > 55%, the percent of intact IgG cross-linked (1 h UV) [13] was 60% and the percent of intact IgG cross-linked (2 h UV) [13] was > 70%.
